Measured values reported in article PMC11485400 (Alzheimer's & Dementia, 2024).
Like-named read-outs stand apart in the source and are kept apart here.

B1: human recombinant PrP^C 23-230 (domain or fragment)
chain: not shown

Columns and labels:
Assay in all cases: SPR
[1] = molecular target: T1, synthetic human Aβ1-42, oligomerised (human, UniProt P05067)
[2] = molecular target: T2, synthetic human Aβ1-40, oligomerised (human, UniProt P05067)
[3] = molecular target: B1
[4] = molecular target: T1, synthetic human Aβ1-42, oligomerised; remark: listed apart in the source
[5] = molecular target: T2, synthetic human Aβ1-40, oligomerised; remark: listed apart in the source

In the case of B1, the Kd [1] is reported as 11.3 nM and the Kd [2] is reported as 28.8 nM.

B2: caveolin-1 (Cav-1) (natural protein)
chain: MSGGKYVDSEGHLYTVPIREQGNIYKPNNKAMADELSEKQVYDAHTKEIDLVNRDPKHLNDDVVKIDFEDVIAEPEGTHSFDGIWKASFTTFTVTKYWFYRLLSALFGIPMALIWGIYFAILSFLHIWAVVPCIKSFLIEIQCISRVYSIYVHTVCDPLFEAVGKIFSNVRINLQKEI
Binder B2 has a Kd [3] of 14.1 nM, a Kd [4] of 13 nM and a Kd [5] of 11.4 nM.
